Assay results taken from US6476188 (ROCKEFELLER UNIVERSITY, dated 2002).
Residue numbers refer to the chain shown, from its start. One block for each binder: values may come before it.

Columns and labels:
[1] = target: T1, GST-PER 530-640 fusion protein (Drosophila, UniProt P07663 530-640); experiment: GST pull-down, 35S-labeled in vitro translated DBT, SDS-PAGE and autoradiography
T1 construct: range 530-640; Constructed as described in Saez and Young 1996 (cited); Immobilized on glutathione agarose beads; also called aa 530-640 of PER; not shown: Glutathione-S-transferase (GST) fusion partner
T1 sequence (looked up): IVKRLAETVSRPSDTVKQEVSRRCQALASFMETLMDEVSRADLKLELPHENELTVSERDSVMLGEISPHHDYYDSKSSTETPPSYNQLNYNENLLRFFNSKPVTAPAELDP
Text: (§1) The staining confirms that similar amounts of GST and GST-PER fusion proteins were used in the assay. Arrow indicates BSA present in all the washes. (Right) GST alone and the indicated GST-PER fusions were used to bind in vitro translated, ^35S-labeled DBT protein. Labeled DBT proteins that bound to the indicated GST-PER fusions were visualized by SDS-PAGE and autoradiography. […] For hs-gfp-dbt, GFP was fused to the amino terminus of DBT.

[2] = target: T2, GST (Glutathione-S-transferase) alone (UniProt P08515 1-218 = GST); experiment: as above
T2 construct: Control in the pull-down assay
T2 sequence (P08515 whole entry): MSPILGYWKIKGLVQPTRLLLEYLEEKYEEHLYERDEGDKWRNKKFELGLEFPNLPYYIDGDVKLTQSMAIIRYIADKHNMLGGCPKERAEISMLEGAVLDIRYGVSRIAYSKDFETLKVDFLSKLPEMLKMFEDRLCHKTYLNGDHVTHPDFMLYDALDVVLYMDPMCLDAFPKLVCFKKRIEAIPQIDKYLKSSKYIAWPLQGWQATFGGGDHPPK
Text: as §1

[3] = target: mouse PERIOD1 (mPER1), in vitro translated, 35S-methionine-labeled (mouse, UniProt O35973 1-1291, limits assumed); experiment: in vitro binding, S-agarose-bound recombinant CK1ε with 35S-labeled in vitro translated mPER1
Sequence of mouse PERIOD1 (mPER1), in vitro translated, 35S-methionine-labeled (O35973 whole entry): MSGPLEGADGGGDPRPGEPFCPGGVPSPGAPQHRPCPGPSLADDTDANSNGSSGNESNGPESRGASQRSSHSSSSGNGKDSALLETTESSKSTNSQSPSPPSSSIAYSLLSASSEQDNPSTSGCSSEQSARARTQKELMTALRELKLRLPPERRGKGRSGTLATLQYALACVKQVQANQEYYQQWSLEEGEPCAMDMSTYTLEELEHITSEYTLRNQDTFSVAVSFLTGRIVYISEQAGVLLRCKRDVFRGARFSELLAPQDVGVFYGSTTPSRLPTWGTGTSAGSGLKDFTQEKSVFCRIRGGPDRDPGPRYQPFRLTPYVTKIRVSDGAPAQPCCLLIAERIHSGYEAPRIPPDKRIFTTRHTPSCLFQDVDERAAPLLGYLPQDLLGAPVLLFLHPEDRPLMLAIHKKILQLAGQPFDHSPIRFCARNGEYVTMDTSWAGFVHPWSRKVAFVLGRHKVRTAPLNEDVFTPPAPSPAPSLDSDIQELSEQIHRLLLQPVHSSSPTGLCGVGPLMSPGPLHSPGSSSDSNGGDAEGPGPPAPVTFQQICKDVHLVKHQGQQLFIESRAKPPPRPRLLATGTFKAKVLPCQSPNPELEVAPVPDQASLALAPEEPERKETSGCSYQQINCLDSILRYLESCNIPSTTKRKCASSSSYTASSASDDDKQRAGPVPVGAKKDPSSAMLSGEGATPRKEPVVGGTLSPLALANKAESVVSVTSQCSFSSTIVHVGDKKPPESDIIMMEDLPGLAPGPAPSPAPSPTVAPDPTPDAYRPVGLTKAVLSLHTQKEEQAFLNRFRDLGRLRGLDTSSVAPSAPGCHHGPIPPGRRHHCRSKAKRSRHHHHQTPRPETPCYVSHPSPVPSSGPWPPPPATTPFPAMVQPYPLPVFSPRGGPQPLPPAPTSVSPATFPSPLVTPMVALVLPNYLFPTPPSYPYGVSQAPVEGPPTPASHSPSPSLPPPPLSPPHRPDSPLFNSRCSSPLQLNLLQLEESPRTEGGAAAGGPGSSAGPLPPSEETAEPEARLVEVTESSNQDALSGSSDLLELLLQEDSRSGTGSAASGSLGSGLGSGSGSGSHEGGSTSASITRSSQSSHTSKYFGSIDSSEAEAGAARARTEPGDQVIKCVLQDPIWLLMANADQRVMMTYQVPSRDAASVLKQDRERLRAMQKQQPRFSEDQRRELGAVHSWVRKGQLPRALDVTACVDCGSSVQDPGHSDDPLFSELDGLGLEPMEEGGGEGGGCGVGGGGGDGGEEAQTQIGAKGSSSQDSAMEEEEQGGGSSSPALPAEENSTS
Method: (§2) Half of the bound beads were then added to a kinase reaction as described above and in Example 3 below, but without c-casein or phosvitin, and incubated at 37° C. for 5 minutes. […] Reactions were separated on 12% SDS-PAGE gels, dried and exposed to phosphor screens. Following exposure to detect both the ^35S and ^32P signals, dried gels were covered with two layers of exposed X-OMAT film to block the ^35S signal. […] PER signal is indicated by filled triangles.
(§3) Per binding studies: For binding assays, mPER1 and mPER2 were synthesized from cDNAs cloned in plasmids by coupled in vitro transcription/translation reactions using ^35S-methionine in a total reaction volume of 50 μl (TNT T7 Coupled Reticulocyte Lysate System, Promega). Recombinant CK1ε was purified from *E. coli* by capture on S-agarose beads as described above. To reduce non-specific binding, 20 μl of in vitro-translated product was mixed with 50 μl of plain S-agarose beads in HND buffer (20 mM HEPES, pH 7.5, 100 mM KCl, 10% glycerol, 0.4% NP40, 1 mM DTT) with 5% BSA. This mixture was incubated at room temperature with shaking for 1 hour. Following incubation, the mixture was centrifuged at 2500 rpm for 5 minutes and the resulting supernatant was divided into two equal aliquots. […]

[4] = target: mouse PERIOD2 (mPER2), in vitro translated, 35S-methionine-labeled (mouse, UniProt O54943 1-1257, limits assumed); experiment: in vitro binding, S-agarose-bound recombinant CK1ε with 35S-labeled in vitro translated mPER2
Sequence of mouse PERIOD2 (mPER2), in vitro translated, 35S-methionine-labeled (O54943 whole entry): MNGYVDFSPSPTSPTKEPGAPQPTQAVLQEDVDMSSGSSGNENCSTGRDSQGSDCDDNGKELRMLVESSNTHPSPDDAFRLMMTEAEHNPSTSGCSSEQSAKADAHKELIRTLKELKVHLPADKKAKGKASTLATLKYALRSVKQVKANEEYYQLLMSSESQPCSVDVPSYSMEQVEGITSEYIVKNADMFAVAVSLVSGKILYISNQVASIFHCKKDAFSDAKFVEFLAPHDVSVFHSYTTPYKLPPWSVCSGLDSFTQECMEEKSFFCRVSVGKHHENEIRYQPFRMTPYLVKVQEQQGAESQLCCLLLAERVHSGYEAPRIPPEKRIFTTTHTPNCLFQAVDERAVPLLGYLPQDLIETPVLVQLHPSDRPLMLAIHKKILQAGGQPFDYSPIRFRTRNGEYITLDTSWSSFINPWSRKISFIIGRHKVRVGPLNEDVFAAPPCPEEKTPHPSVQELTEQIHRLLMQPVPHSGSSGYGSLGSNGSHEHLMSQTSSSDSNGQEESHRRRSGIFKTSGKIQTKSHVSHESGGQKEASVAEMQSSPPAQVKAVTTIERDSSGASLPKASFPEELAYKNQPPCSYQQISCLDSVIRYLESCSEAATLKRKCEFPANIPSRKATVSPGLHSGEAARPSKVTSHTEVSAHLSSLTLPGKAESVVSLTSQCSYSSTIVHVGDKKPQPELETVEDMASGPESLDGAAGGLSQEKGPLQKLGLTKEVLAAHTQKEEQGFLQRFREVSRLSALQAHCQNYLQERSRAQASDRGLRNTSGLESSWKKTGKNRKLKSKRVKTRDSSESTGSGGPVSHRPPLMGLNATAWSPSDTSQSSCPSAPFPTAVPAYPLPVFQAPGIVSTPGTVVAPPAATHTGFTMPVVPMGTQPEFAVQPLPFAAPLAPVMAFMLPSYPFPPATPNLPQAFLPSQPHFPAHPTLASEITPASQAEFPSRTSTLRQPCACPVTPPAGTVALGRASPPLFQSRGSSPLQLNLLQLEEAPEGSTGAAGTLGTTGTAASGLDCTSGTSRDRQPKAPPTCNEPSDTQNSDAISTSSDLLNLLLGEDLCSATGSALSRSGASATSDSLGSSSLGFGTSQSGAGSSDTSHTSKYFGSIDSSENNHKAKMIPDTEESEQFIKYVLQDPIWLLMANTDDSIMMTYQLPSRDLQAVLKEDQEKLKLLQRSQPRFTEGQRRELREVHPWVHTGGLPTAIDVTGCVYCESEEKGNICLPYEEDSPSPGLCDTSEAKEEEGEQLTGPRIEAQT
Method: as §2, §3

binding result [1]: no binding
binding result [2]: no binding
B1: DOUBLETIME protein (DBT), Drosophila, in vitro translated from dbt cDNA P12, 35S-labeled (enzyme)
chain: MELRVGNKYRLGRKIGSGSFGDIYLGTTINTGEEVAIKLECIRTKHPQLHIESKFYKTMQGGIGIPRIIWCGSEGDYNVMVMELLGPSLEDLFNFCSRRFSLKTVLLLADQMISRIDYIHSRDFIHRDIKPDNFLMGLGKKGNLVYIIDFGLAKKFRDARSLKHIPYRENKNLTGTARYASINTHLGIEQSRRDDLESLGYVLMYFNLGALPWQGLKAANKRQKYERISEKKLSTSIVVLCKGFPSEFVNYLNFCRQMHFDQRPDYCHLRKLFRNLFHRLGFTYDYVFDWNLLKFGGPRNPQAIQQAQDGADGQAGHDAVAAAAAVAAAAAASSHQQQQHKVNAALGGGGGSRAQQQLQGGQTLAMLGGNGGGNGSQLIGGNGLNMDDSMAATNSSRPPYDTPERRPSIRMRQGGGGGGGGVGVGGMQSGGGGGGVGNAK
notes: In vitro translated, 35S-labeled; about 46 kDa by SDS-PAGE; the open reading frame predicts 440 aa; also called Drosophila CK1ε

binding result [3]: binds
binding result [4]: binds
B2: recombinant wild-type hamster CK1ε with N-terminal S•Tag and His-Tag fusions, captured on S-protein agarose (enzyme)
chain: MELRVGNKYRLGRKIGSGSFGDIYLGANIASGEEVAIKLECVKTKHPQLHIESKFYKMMQGGVGIPSIKWCGAEGDYNVMVMELLGPSLEDLFNFCSRKFSLKTVLLLADQMISRIEYIHSKNFIHRDVKPDNFLMGLGKKGNLVYIIDFGLAKKYRDARTHQHIPYRENKNLTGTARYASINTHLGIEQSRRDDLESLGYVLMYFNLGSLPWQGLKAATKRQKYERISEKKMSTPIEVLCKGYPSEFSTYLNFCRSLRFDDKPDYSYLRQLFRNLFHRQGFSYDYVFDWNMLKFGAARNPEDVDRERREHEREERMGQLRGSATRALPPGPPTGATANRLRSAAEPVASTPASRIQQAGNTSPRAISRADRERKVSMRLHRGAPANVSSSDLTGRQEVSRISASQTSVPFDHLGK
notes: Full-length cDNA expressed in E. coli BL21(DE3)pLysS; The preparation holds both autophosphorylated and unphosphorylated forms; also called wild-type CK1ε; WT; not shown: N-terminal S•Tag (15 amino acids) and His-Tag fusion from the pET-30 LIC vector

binding result [3]: binds
binding result [4]: binds
B3: recombinant tau mutant hamster CK1ε (Arg178Cys) with N-terminal S•Tag and His-Tag fusions, captured on S-protein agarose (enzyme)
chain: B2 chain with R178C
notes: Full-length tau cDNA expressed in E. coli; Arg #178 of the wild-type protein is replaced by cysteine; also called tau CK1ε; tau mutant enzyme; not shown: N-terminal S•Tag (15 amino acids) and His-Tag fusion from the pET-30 LIC vector
